In paper PMC4635314, “Insights into Collagen Uptake by C-type Mannose Receptors from the Crystal Structure of Endo180 Domains 1–4” (Structure(London, England:1993), 2015):

Key:
[1] = molecular target: T1, gelatin (heat-denatured rat-tail type I collagen) (rat, UniProt P02454 152-1207; P02466 86-1125); assay: ELISA; solid-phase binding assay: collagen or gelatin coated at 10 μg/ml on Nunc MaxiSorp plates; Fc-tagged Endo180 proteins in PBS with 0.1 mg/ml κ-casein and 0.05% Tween 20 added for 2 hr (titration, or fixed 1 μM in Figure 6A); detected with anti-human IgG-HRP, 492 nm; single-site fit; settings: both partners purified
T1 construct: collagen alpha-1(I) chain, rat, heat-denatured; collagen alpha-2(I) chain, rat, heat-denatured; Same chains as m3 but denatured (unfolded single chains) before coating or coupling; also called denatured collagen; source: bought: Sigma (rat-tail type I collagen), 1 mg/ml in 100 mM acetic acid heated to 67°C for 30 min
T1 sequence (P02454 152-1207, chain 1 of 2): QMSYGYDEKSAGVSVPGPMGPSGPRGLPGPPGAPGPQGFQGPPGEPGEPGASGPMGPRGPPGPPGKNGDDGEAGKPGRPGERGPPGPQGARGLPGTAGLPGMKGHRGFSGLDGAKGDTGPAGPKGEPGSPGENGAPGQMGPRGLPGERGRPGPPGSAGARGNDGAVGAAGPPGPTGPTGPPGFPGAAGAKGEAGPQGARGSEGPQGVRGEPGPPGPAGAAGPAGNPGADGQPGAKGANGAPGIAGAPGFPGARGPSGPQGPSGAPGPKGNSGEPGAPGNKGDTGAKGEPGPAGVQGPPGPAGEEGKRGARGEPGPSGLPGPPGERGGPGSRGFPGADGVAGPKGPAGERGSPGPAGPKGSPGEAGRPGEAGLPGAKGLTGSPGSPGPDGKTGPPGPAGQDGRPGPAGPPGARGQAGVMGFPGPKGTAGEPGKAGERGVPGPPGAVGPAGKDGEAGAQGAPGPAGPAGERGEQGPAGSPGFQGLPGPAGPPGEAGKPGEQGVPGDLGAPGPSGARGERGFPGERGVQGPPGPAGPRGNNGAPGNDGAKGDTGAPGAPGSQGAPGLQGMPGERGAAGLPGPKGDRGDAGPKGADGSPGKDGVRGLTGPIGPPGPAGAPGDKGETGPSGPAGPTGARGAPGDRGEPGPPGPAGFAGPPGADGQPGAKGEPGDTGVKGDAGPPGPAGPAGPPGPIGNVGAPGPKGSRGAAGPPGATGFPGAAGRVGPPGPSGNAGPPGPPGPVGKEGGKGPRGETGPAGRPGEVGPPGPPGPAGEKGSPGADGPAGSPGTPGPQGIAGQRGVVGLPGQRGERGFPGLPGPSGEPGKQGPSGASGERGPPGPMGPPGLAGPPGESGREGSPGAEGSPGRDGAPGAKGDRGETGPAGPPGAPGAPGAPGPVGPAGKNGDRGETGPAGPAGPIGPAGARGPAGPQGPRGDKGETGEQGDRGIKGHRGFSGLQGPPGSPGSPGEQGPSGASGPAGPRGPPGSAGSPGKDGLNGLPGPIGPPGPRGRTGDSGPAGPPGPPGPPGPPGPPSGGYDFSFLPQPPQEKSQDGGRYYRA
T1 sequence (P02466 86-1125, chain 2 of 2): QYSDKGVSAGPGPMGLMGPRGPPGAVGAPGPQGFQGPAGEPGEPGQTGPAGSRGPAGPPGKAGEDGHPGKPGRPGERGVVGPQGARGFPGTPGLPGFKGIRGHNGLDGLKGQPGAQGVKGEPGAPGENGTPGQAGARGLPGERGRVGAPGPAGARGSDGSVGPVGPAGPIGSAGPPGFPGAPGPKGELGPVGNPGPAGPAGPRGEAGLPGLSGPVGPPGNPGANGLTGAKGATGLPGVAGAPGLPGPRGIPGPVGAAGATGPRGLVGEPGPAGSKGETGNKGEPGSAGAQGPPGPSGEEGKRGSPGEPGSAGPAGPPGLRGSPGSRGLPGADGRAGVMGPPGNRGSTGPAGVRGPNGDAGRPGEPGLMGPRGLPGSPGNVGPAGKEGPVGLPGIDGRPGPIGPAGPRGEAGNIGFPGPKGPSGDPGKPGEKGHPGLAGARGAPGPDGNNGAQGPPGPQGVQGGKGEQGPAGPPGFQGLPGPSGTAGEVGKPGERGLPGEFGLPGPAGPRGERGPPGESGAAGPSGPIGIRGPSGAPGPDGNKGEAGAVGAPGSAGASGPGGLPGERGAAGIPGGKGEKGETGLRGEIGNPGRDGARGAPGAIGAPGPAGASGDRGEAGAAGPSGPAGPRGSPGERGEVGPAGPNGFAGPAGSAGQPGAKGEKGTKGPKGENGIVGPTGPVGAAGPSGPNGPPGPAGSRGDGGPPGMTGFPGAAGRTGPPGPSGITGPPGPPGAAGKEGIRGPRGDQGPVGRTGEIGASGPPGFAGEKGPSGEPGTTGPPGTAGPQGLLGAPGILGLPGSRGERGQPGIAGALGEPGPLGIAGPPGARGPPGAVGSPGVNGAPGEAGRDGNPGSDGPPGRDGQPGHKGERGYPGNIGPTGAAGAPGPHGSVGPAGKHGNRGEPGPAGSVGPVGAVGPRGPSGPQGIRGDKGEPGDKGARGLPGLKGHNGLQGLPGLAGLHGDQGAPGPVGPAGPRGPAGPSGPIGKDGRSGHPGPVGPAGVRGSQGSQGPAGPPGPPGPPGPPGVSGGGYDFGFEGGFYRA

[2] = molecular target: T2, type I collagen (native, triple-helical; rat tail) (rat, UniProt P02454 152-1207; P02466 86-1125); assay: as above; settings: both partners purified
T2 construct: collagen alpha-1(I) chain, rat; collagen alpha-2(I) chain, rat; also called native collagen; rat-tail type I collagen; source: bought: Sigma (rat-tail type I collagen)
T2 sequence (P02454 152-1207, chain 1 of 2): as the sequence (P02454 152-1207, chain 1 of 2) above
T2 sequence (P02466 86-1125, chain 2 of 2): as the sequence (P02466 86-1125, chain 2 of 2) above

B1: Endo180 D1-4-Fc (dimeric Fc-tagged Endo180 domains 1-4) (Fc fusion)
chain: APLADAALPEPNVFLIFSHGLQGCLEAQGGQVRVTPACNTSLPAQRWKWVSRNRLFNLGTMQCLGTGWPGTNTTASLGMYECDREALNLRWHCRTLGDQLSLLLGARTSNISKPGTLERGDQTRSGQWRIYGSEEDLCALPYHEVYTIQGNSHGKPCTIPFKYDNQWFHGCTSTGREDGHLWCATTQDYGKDERWGFCPIKSNDCETFWDKDQLTDSCYQFNFQSTLSWREAWASCEQQGADLLSITEIHEQTYINGLLTGYSSTLWIGLNDLDTSGGWQWSDNSPLKYLNWESDQPDNPSEENCGVIRTESSGGWQNRDCSIALPYVCKKKPNATAEPTPPDRWANVKVECEPSWQPFQGHCYRLQAEKRSWQESKKACLRGGGDLVSIHSMAELEFITKQIKQEVEELWIGLNDLKLQMNFEWSDGSLVSFTHWHPFEPNNFRDSLEDCVTIWGPEGRWNDSPCNQSLPSICKKAGQLSQG
modifications: natively glycosylated (predicted N-linked sites Asn69, Asn102, Asn140, Asn364, Asn497)
Kd [1]: 420 ± 30 nM | Kd [2]: 2500 ± 250 nM

B2: Endo180 D3-4-Fc (Fc fusion, human)
chain: APLAKSNDCETFWDKDQLTDSCYQFNFQSTLSWREAWASCEQQGADLLSITEIHEQTYINGLLTGYSSTLWIGLNDLDTSGGWQWSDNSPLKYLNWESDQPDNPSEENCGVIRTESSGGWQNRDCSIALPYVCKKKPNATAEPTPPDRWANVKVECEPSWQPFQGHCYRLQAEKRSWQESKKACLRGGGDLVSIHSMAELEFITKQIKQEVEELWIGLNDLKLQMNFEWSDGSLVSFTHWHPFEPNNFRDSLEDCVTIWGPEGRWNDSPCNQSLPSICKKAGQLSQG
notes: Endo180 (uPARAP), human, domains 3-4 (CTL1, CTL2), residues 231-513 of UniProt Q9UBG0; also called D3-4-Fc construct; source: HEK293 c18, transfected, secreted into serum-free medium, purified (protein A); not shown: Fc (IgG2), C-terminal, kept
Kd [1]: 2200 ± 150 nM | Kd [2]: 3700 ± 430 nM
